This is an account of results in publication doi:10.1101/208272 (bioRxiv, 2017).

Data set [1] has as its target Cdh23-EC1+2 (mouse cadherin-23 extracellular repeats EC1 and EC2), wild type (mouse) (UniProt Q99PF4). Nature of the data set: dynamic light scattering.
Data set [2] shares this target. Nature of the data set: AUC.
For data set [3] the target is unchanged. In words: single-molecule force spectroscopy.
For data set [4] the target is unchanged. In words: SEC. On the technique in general: Size exclusion chromatography separates by hydrodynamic size, large species first.
Data set [5] has the same target. In words: FRET or BRET. (In general: BRET reads energy transfer from a luciferase to a nearby fluorophore.)
Data set [6] has as its target Cdh23-EC1+2 V3C, labelled with cy3 or cy5 at the N-terminus (mouse). In words: FRET or BRET.
Data set [7] deals with the molecule itself. In words: AUC.

“Cdh23-EC1+2 (mouse cadherin-23 extracellular repeats EC1 and EC2), wild type (from UniProt Q99PF4 24-228) (domain or fragment)” registered a stoichiometry N in data set [1] of 2. Besides, in data set [2], the Kd is 18 µM and the stoichiometry N worked out at 2. For the same molecule, in data set [3], the percent unbinding events lay within 8 to 10%; the probability of events came out at 6%; the τ0 (intrinsic lifetime at zero force), high-force distribution worked out at 1220 s; the τ0 (intrinsic lifetime at zero force), low-force distribution worked out at 1.86 s. In data set [4], this molecule came in with a stoichiometry N of 2.
Consider “Cdh23-EC1+2 V3C, labelled with cy3 or cy5 at the N-terminus (domain or fragment)”, for which the figures for the FRET efficiency in data set [5] and in data set [6] were 0.64 and 0.15, respectively.

B1: Cdh23-EC1 (mouse cadherin-23 extracellular repeat EC1) (domain or fragment, UniProt Q99PF4 24-124, looked up)
chain: QVNRLPFFTNHFFDTYLLISEDTPVGSSVTQLLARDMDNDPLVFGVSGEEASRFFAVEPDTGVVWLRQPLDRETKSEFTVEFSVSDHQGVITRKVNIQVGD
modifications: C-terminus covalently joined by sortase A to GGGGC on PEG-coated coverslips and AFM cantilevers in force spectroscopy
With B1, the “stoichiometry N” value in data set [7] turned out to be 2.

One may read the stoichiometry N as the number of molecules, sites or subunits per partner or assembly. A word on the Kd: it is a measure of binding affinity in units of concentration. High values mean weaker binding, low ones tighter binding.
